We go through 6 molecules from US20260078190A1 (SYSTIMMUNE, published 2026).

Read-outs that look alike come from different tables or passages of the source.

Usually EC50 (read off the curve) stands for the midpoint of the concentration-response curve. A lower EC50 (read off the curve) goes with higher potency in that assay. The EC50 is the concentration giving half of the maximal effect. Broadly, the Kd is the constant that tells how readily two partners part at equilibrium. High values mean a looser complex, low ones a tighter complex. In general, koff refers to a measure of how fast the partners let go of each other. A higher koff goes with a short-lived complex. By kon is commonly meant a measure of how fast the partners come together. Higher therefore signals faster complex formation.

Assay [1] addresses T1, SI-2C1, dimeric EGFR ECD fused to rabbit Fc (UniProt P00533 25-645, limits assumed).
T1 construct: extracellular domain; Made in house; also called dimeric EGFR ECD reagent; not shown: rabbit Fc
As to the kind of experiment: ELISA, plate coated with dimeric EGFR ECD-rabbit Fc (SI-2C1) at 3 µg/mL, antibody from 10 µg/mL in 3x dilutions, goat anti-human IgG-HRP, OD 450 nm. Background: An ELISA detects its analyte on a solid surface through an enzyme-linked reagent.

In assay [2] the target is T2, Her3 ECD (Sino Biological, 10201-H08H-10) (UniProt P21860 20-643).
T2 construct: extracellular domain; Bought reagent; also called Her3 extracellular domain
As to the kind of experiment: BLI (BLItz), same tip after the EGFR step; second step Her3 ECD 200 nM, 120 s association, 60 s dissociation.

In assay [3] the target is T1, SI-2C1, dimeric EGFR ECD fused to …. Kind of assay: ELISA, plate coated with dimeric EGFR ECD-rabbit Fc (SI-2C1) at 3 µg/mL, antibody from 50 µg/mL in 3x dilutions, goat anti-human IgG-HRP, OD 450 nm.
The target in assay [4] is T2, Her3 ECD (Sino Biological, …). Kind of assay: BLI (BLItz), same tip after the EGFR step; second step Her3 ECD 200 nM, 120 s association, 60 s dissociation. The source holds these as a separate data set.
For assay [5], the target named is T3, EGFR on A431 and FaDu tumor cells (UniProt P00533 25-1210, limits assumed).
T3 construct: whole, on cells; the cells are native tumor lines, not transfectants
As to the kind of experiment: flow cytometry titration on tumour cells (A431 by the legend paragraph 19, FaDu by Example 7 paragraph 83), PE anti-human IgG-Fc, geometric MFI; the table's head prints 'IC50 (nM)', Example 7 calls the values EC50 of binding; bispecific EGFR x Her3 on cells that carry both, the anti-Her3 curve (SI-1C1) stays near the baseline. For orientation: Flow cytometry measures light scatter and fluorescence of single cells or particles in a stream.

Assay [6] addresses T3, EGFR on A431 and FaDu tumor cells. Kind of assay: flow cytometry titration on tumour cells (Fadu by the legend paragraph 18, A431 by Example 7 paragraph 83), PE anti-human IgG-Fc, geometric MFI; the table's head prints 'IC50 (nM)', Example 7 calls the values EC50 of binding; bispecific EGFR x Her3 on cells that carry both, the anti-Her3 curve (SI-1C1) stays near the baseline.

Assay [7] concerns the target T4, Extracellular domain (Met 1-Ser 645) of human EGFR with a C-terminal polyhistidine tag (human, UniProt P00533 25-645).
T4 construct: range 1-645; also called EGFR protein; EGFR ECD; not shown: C-terminal polyhistidine tag
Kind of assay: BLI (Octet Red96), antibody on anti-human Fc sensor, curve fit at EGFR 11.1 nM.

Assay [8] deals with T4, Extracellular domain (Met 1-Ser 645) of …. As to the kind of experiment: BLI (Octet Red96), antibody on anti-human Fc sensor, curve fit at EGFR 100 nM. On the technique in general: In BLI a coated tip is dipped into the sample, and binding shifts an interference pattern.
The target is the same in assay [9]. As to the kind of experiment: BLI (Octet Red96), antibody on anti-human Fc sensor, curve fit at EGFR 300 nM.
Assay [10] shares this target. Kind of assay: BLI (Octet Red96), antibody on anti-human Fc sensor, curve fit at EGFR 33.3 nM.
The target of assay [11] is T5, Monomeric EGFR ECD (SI-2R4) (UniProt P00533 25-645, limits assumed).
T5 construct: extracellular domain; Coated antigen of the serum stability ELISA
As to the kind of experiment: ELISA on coated monomeric EGFR ECD (SI-2R4), detection through Her3 ECD rabbit IgG1 (SI-1R1); antibody in 95% human serum, Day 7 at 55 C (degradation condition).

For assay [12], the target named is T5, Monomeric EGFR ECD (SI-2R4). As to the kind of experiment: ELISA on coated monomeric EGFR ECD (SI-2R4, 3 µg/mL), antibody after 3 days at 37 °C in 95% human serum, column 'Day 3 (37°C)'; M follows from the text, which gives the neighbouring 4.293e-010 as 429.3 pM.
Assay [13] has the same target. As to the kind of experiment: ELISA on coated monomeric EGFR ECD (SI-2R4), detection through Her3 ECD rabbit IgG1 (SI-1R1) and anti-rabbit IgG-HRP; antibody in 95% human serum, Day 0; Day 0, 95% human serum.
The target of assay [14] is T4, Extracellular domain (Met 1-Ser 645) of …. Kind of assay: BLI (Octet Red96), antibody on anti-human Fc sensor, average of the four curve fits.
Assay [15] concerns the target T5, Monomeric EGFR ECD (SI-2R4). Kind of assay: ELISA on coated monomeric EGFR ECD (SI-2R4), detection through Her3 ECD rabbit IgG1 (SI-1R1); antibody after 7 days in 95% human serum at 37 C; Day 7 at 37 C, 95% human serum.

B1: SI-1C4 (bispecific antibody, human IgG1, kappa, V domains shown)
VH: EVQLVESGGGLVQPGGSLRLSCAASGFTLSGDWIHWVRQAPGKGLEWVGEISAAGGYTDYADSVKGRFTISADTSKNTAYLQMNSLRAEDTAVYYCARESRVSFEAAMDYWGQGTLVTVSS
VL: DIQMTQSPSSLSASVGDRVTITCRASQNIATDVAWYQQKPGKAPKLLIYSASFLYSGVPSRFSGSGSGTDFTLTISSLQPEDFATYYCQQSEPEPYTFGQGTKVEIKR
notes: Control: two-in-one bispecific antibody against EGFR and HER3 (Schaefer et al. 2011 platform); also called IC4; benchmark antibody
Regarding B1, the “EC50 (read off the curve)” value in [1] is roughly 0.03 nM. For the same molecule, the binding result in assay [2] was “binds”.

B2: SI-1C5 (antibody, human IgG1, kappa, V domains shown)
VH: QVQLQQSGAEVKKPGSSVKVSCKASGYTFTNYYIYWVRQAPGQGLEWIGGINPTSGGSNFNEKFKTRVTITVDESTNTAYMELSSLRSEDTAFYFCARQGLWFDSDGRGFDFWGQGSTVTVSS
VL: DIQMTQSPSSLSASVGDRVTITCRSSQNIVHSNGNTYLDWYQQTPGKAPKLLIYKVSNRFSGVPSRFSGSGSGTDFTFTISSLQPEDIATYYCFQYSHVPWTFGQGTKLQITR
notes: Monospecific anti-EGFR IgG1 kappa
B2: the “EC50 (read off the curve)” value in [3] is roughly 5 nM.

B3: SI-1X1 (bispecific antibody, human IgG1, kappa)
heavy: not shown
light: QSALTQPASVSGSPGQSITISCTGTSSDVGGYNFVSWYQQHPGKAPKLMIYDVSDRPSGVSDRFSGSKSGNTASLIISGLQADDEADYYCSSYGSSSTHVIFGGGTKLTVLRTVAAPSVFIFPPSDEQLKSGTASVVCLLNNFYPREAKVQWKVDNALQSGNSQESVTEQDSKDSTYSLSSTLTLSKADYEKHKVYACEVTHQGLSSPVTKSFNRGEC
notes: Tetravalent: anti-HER3 IgG1 with anti-EGFR scFv on the heavy chain C-terminus (heavy chain entry holds IgG1 heavy chain, connector and scFv)
Take B3: in assay [1], the “EC50 (read off the curve)” value was roughly 0.2 nM. For the same molecule, the binding result in [2] was “binds”.

B4: SI-1X3 (bispecific antibody, human IgG1, kappa)
heavy: not shown
light: QSALTQPASVSGSPGQSITISCTGTSSDVGGYNFVSWYQQHPGKAPKLMIYDVSDRPSGVSDRFSGSKSGNTASLIISGLQADDEADYYCSSYGSSSTHVIFGGGTKLTVLRTVAAPSVFIFPPSDEQLKSGTASVVCLLNNFYPREAKVQWKVDNALQSGNSQESVTEQDSKDSTYSLSSTLTLSKADYEKHKVYACEVTHQGLSSPVTKSFNRGEC
notes: Tetravalent: anti-HER3 IgG1 with anti-EGFR (1C5) scFv on the heavy chain C-terminus
In the case of B4, in assay [4], the binding result is on record as “binds”.

B5: SI-1X4 (bispecific antibody, human IgG1, kappa)
heavy: not shown
light: DIQMTQSPSSLSASVGDRVTITCRSSQNIVHSNGNTYLDWYQQTPGKAPKLLIYKVSNRFSGVPSRFSGSGSGTDFTFTISSLQPEDIATYYCFQYSHVPWTFGQGTKLQITRTVAAPSVFIFPPSDEQLKSGTASVVCLLNNFYPREAKVQWKVDNALQSGNSQESVTEQDSKDSTYSLSSTLTLSKADYEKHKVYACEVTHQGLSSPVTKSFNRGEC
notes: Tetravalent: anti-EGFR (1C5) IgG1 with anti-HER3 scFv on the heavy chain C-terminus
Consider B5, for which the binding result in assay [4] is on record as “binds”. In addition, in [3], the “EC50 (read off the curve)” value was roughly 5 nM.

B6: SI-1X4.2 (bispecific antibody)
heavy: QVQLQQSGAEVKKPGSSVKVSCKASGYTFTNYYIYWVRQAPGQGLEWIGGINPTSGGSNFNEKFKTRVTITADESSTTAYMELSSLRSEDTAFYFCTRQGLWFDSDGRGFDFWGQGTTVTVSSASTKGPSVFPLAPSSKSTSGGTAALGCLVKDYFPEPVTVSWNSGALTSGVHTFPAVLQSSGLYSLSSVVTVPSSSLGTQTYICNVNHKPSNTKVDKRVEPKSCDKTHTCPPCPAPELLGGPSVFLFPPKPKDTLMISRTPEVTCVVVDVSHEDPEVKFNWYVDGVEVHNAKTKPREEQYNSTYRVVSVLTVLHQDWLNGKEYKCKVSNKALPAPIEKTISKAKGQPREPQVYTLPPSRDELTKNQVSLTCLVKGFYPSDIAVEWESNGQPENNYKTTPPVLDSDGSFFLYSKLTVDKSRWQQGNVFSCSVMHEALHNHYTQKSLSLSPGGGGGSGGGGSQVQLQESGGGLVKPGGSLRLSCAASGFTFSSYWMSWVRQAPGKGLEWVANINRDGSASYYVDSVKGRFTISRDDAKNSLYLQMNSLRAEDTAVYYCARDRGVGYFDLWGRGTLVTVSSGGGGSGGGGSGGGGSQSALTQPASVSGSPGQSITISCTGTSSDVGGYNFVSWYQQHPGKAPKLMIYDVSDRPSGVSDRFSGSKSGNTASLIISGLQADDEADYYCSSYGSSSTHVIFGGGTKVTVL
light: DIQMTQSPSSLSASVGDRVTITCRSSQNIVHSNGNTYLDWYQQTPGKAPKLLIYKVSNRFSGVPSRFSGSGSGTDFTFTISSLQPEDIATYYCFQYSHVPWTFGQGTKLQITRTVAAPSVFIFPPSDEQLKSGTASVVCLLNNFYPREAKVQWKVDNALQSGNSQESVTEQDSKDSTYSLSSTLTLSKADYEKHKVYACEVTHQGLSSPVTKSFNRGEC
notes: Tetravalent: anti-EGFR (1C5.2) IgG1 with anti-HER3 scFv
Regarding B6, the 50% effective concentration (EC50) in assay [5] worked out at 2.28 nM; in assay [6], 4.02 nM; in assay [11], 4.25 nM; in assay [12], 0.509 nM; in assay [13], 0.429 nM; in assay [15], 0.467 nM. Moreover, the dissociation constant (Kd) amounted to 6.19 nM in [7]; 21 nM in assay [8]; 36.9 nM in assay [9]; 9.44 nM in assay [10]; 18.4 nM in [14]. The koff in [7] worked out at 0.00135 s⁻¹; in [8], 0.00165 s⁻¹; in [9], 0.00171 s⁻¹; in assay [10], 0.00149 s⁻¹; in assay [14], 0.00155 s⁻¹. In addition, the kon in [7] worked out at 218000 M⁻¹ s⁻¹; in assay [8], 78800 M⁻¹ s⁻¹; in assay [9], 46300 M⁻¹ s⁻¹; in assay [10], 158000 M⁻¹ s⁻¹; in assay [14], 125000 M⁻¹ s⁻¹.
